Measured values: the supplement of paper PMC9112550, “Optimization of the antimicrobial peptide Bac7 by deep mutational scanning” (BMC Biology, 2022)

Test system: Escherichia coli TOP10
Assay: shrunken log2 fold change of peptide-encoding DNA abundance (4.5 h post-induction vs induction); higher = less antimicrobial activity (less host growth inhibition)
Settings: time post-induction: 4.5 h; library: site-saturation at positions 5, 18, 19, 20
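Note: peptides expressed intracellularly from a pBAD plasmid library in pooled LB shake-flask culture, induced with 0.3% L-arabinose, DNA abundance read by NGS, three biological replicates, DESeq2 with apeglm shrinkage.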

Sequence	shrunken log2 fold change
RRIRGRPPRLPRPRPRPNTFPRP	0.00502
RRIRGRPPRLPRPRPRPNTWPRP	0.237
RRIRGRPPRLPRPRPRPNYKPRP	0.211
RRIRGRPPRLPRPRPRPNYSPRP	-0.371
RRIRGRPPRLPRPRPRPPCLPRP	0.503
RRIRGRPPRLPRPRPRPPCSPRP	0.238
RRIRGRPPRLPRPRPRPPDGPRP	1.99
RRIRGRPPRLPRPRPRPPEMPRP	1.62
RRIRGRPPRLPRPRPRPPHAPRP	1.37
RRIRGRPPRLPRPRPRPPHFPRP	0.67
RRIRGRPPRLPRPRPRPPICPRP	0.155
RRIRGRPPRLPRPRPRPPKKPRP	1.03
RRIRGRPPRLPRPRPRPPKVPRP	0.762
RRIRGRPPRLPRPRPRPPLKPRP	1.03
RRIRGRPPRLPRPRPRPPMAPRP	0.94
RRIRGRPPRLPRPRPRPPMFPRP	0.295
RRIRGRPPRLPRPRPRPPMGPRP	0.59
RRIRGRPPRLPRPRPRPPMVPRP	0.277
RRIRGRPPRLPRPRPRPPRLPRP	0.702
RRIRGRPPRLPRPRPRPPSIPRP	0.519
RRIRGRPPRLPRPRPRPPSLPRP	0.477
RRIRGRPPRLPRPRPRPPTLPRP	0.596
RRIRGRPPRLPRPRPRPPTVPRP	1.12
RRIRGRPPRLPRPRPRPPVEPRP	0.608
RRIRGRPPRLPRPRPRPPWQPRP	0.691

Sequence	shrunken log2 fold change
RRIRGRPPRLPRPRPRPQAEPRP	1.08
RRIRGRPPRLPRPRPRPQAGPRP	0.695
RRIRGRPPRLPRPRPRPQAYPRP	-0.0978
RRIRGRPPRLPRPRPRPQCFPRP	0.352
RRIRGRPPRLPRPRPRPQCIPRP	0.438
RRIRGRPPRLPRPRPRPQDDPRP	0.114
RRIRGRPPRLPRPRPRPQFTPRP	0.104
RRIRGRPPRLPRPRPRPQGPPRP	0.224
RRIRGRPPRLPRPRPRPQLHPRP	0.231
RRIRGRPPRLPRPRPRPQLNPRP	0.368
RRIRGRPPRLPRPRPRPQMFPRP	0.612
RRIRGRPPRLPRPRPRPQMPPRP	0.225
RRIRGRPPRLPRPRPRPQMWPRP	0.891
RRIRGRPPRLPRPRPRPQNRPRP	0.0342
RRIRGRPPRLPRPRPRPQNTPRP	0.0999
RRIRGRPPRLPRPRPRPQPTPRP	1.02
RRIRGRPPRLPRPRPRPQPYPRP	-0.0844
RRIRGRPPRLPRPRPRPQQPPRP	0.423
RRIRGRPPRLPRPRPRPQSPPRP	0.225
RRIRGRPPRLPRPRPRPQTLPRP	0.614
RRIRGRPPRLPRPRPRPQVCPRP	2.63e-05
RRIRGRPPRLPRPRPRPRCNPRP	0.551
RRIRGRPPRLPRPRPRPRCWPRP	1.19
RRIRGRPPRLPRPRPRPRCYPRP	0.555
RRIRGRPPRLPRPRPRPRDIPRP	0.373

Sequence	shrunken log2 fold change
RRIRGRPPRLPRPRPRPREFPRP	1.07
RRIRGRPPRLPRPRPRPREGPRP	1.42
RRIRGRPPRLPRPRPRPRFMPRP	0.172
RRIRGRPPRLPRPRPRPRFPPRP	0.412
RRIRGRPPRLPRPRPRPRFQPRP	0.158
RRIRGRPPRLPRPRPRPRGQPRP	0.803
RRIRGRPPRLPRPRPRPRGWPRP	1.68
RRIRGRPPRLPRPRPRPRHKPRP	0.149
RRIRGRPPRLPRPRPRPRHNPRP	0.0863
RRIRGRPPRLPRPRPRPRHWPRP	0.439
RRIRGRPPRLPRPRPRPRHYPRP	0.173
RRIRGRPPRLPRPRPRPRIHPRP	0.273
RRIRGRPPRLPRPRPRPRIYPRP	1.15
RRIRGRPPRLPRPRPRPRKIPRP	0.829
RRIRGRPPRLPRPRPRPRLHPRP	0.653
RRIRGRPPRLPRPRPRPRNRPRP	0.637
RRIRGRPPRLPRPRPRPRNYPRP	0.00522
RRIRGRPPRLPRPRPRPRPCPRP	0.676
RRIRGRPPRLPRPRPRPRPPPRP	1.19
RRIRGRPPRLPRPRPRPRRHPRP	0.612
RRIRGRPPRLPRPRPRPRRPPRP	0.756
RRIRGRPPRLPRPRPRPRSNPRP	0.363
RRIRGRPPRLPRPRPRPRTGPRP	0.617
RRIRGRPPRLPRPRPRPRYEPRP	0.409
RRIRGRPPRLPRPRPRPRYQPRP	0.615
